In the supplement of paper PMC9732359:
± gives the uncertainty stated by the source.

Test: protein stability index of a GFP-peptide fusion (yeast GPS) (PSI 1-4); higher = more stable; sorted into four equal gates, so the index is relative within each strain
In short: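 Sequencing reads from sorted gates were used to score each peptide. The library consisted of tiled 17-residue yeast protein peptides fused downstream of GFP on a Cherry-expressing plasmid, pooled and carried in yeast. Mid-log cultures in leucine-free medium were split into four equal gates by GFP/Cherry ratio, and each gate's plasmids were PCR-amplified and Illumina-sequenced. The protein stability index adds up, over all gates, the read frequency multiplied by the gate number.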

Sequence | protein stability index (doa10∆) | protein stability index (pdr5∆) | protein stability index (san1∆) | protein stability index (ubr1∆)
GSGSRLNRLPAASLGDM [RPL23A] | 2.28 ± 0.17 | 2.6 ± 0.18 | 2.66 ± 0.24 | 3.12 ± 0.22
TSNGLKKNPNWLEEYHP [FAS1] | 3.3 ± 0.17 | 3.22 ± 0.15 | 3.48 ± 0.098 | 3.38 ± 0.11
RKFALEKLYIFYKLNMP [SRP72] | 1.99 ± 0.046 | 1.79 ± 0.057 | 1.44 ± 0.085 | 1.29 ± 0.039
DALVKRFKNSVKWYHFD [PRE7] | 3.19 ± 0.13 | 3.37 ± 0.12 | 3.18 ± 0.072 | 3.08 ± 0.07
LIESGIGTHHAGLTRSD [BRR2] | 3.31 ± 0.095 | 3.5 ± 0.13 | 2.82 ± 0.1 | 3.43 ± 0.062
GDSGISPEESKARSPGI [SIR4] | 3.52 ± 0.15 |  |  | 
WCQEAFPSSETTSLNPI [BRR2] | 3.23 ± 0.11 | 3.33 ± 0.097 | 3.48 ± 0.11 | 3.23 ± 0.17
QTDAIKSDEAKWKPVLS [RPN5] | 2.62 ± 0.14 | 2.99 ± 0.19 | 3.27 ± 0.075 | 3.2 ± 0.16
GRMDMTRLYDYEIRDID [SSN2] | 3.29 ± 0.24 | 2.94 ± 0.15 | 3.38 ± 0.074 | 3.36 ± 0.096
TESIALSSMRFKPSQEP [RRI1] | 2.85 ± 0.072 | 3.31 ± 0.064 | 3.3 ± 0.076 | 2.86 ± 0.057
KAIPTFSFGKPFFSSNT [YIL149C/MLP2] | 3.07 ± 0.048 | 3.14 ± 0.046 | 2.94 ± 0.035 | 3.011 ± 0.028
HELITNIGETAGVVQDI [RPB9] | 2.82 ± 0.066 | 2.79 ± 0.054 | 3.27 ± 0.07 | 3.22 ± 0.057
YSTCPSETDLNDIPLGS [SRB8] | 2.52 ± 0.13 | 2.72 ± 0.18 | 2.36 ± 0.14 | 2.47 ± 0.078
SEDSMNVQLRDVIATEP [SMD3] | 2.94 ± 0.1 | 3.36 ± 0.098 | 3.09 ± 0.065 | 3.23 ± 0.039
APGTEAGIVPVSANTPK [SWI1] | 3.06 ± 0.053 | 2.94 ± 0.065 | 3.08 ± 0.053 | 3.18 ± 0.054
QVLSQSADPSLLIDQFS [SWI1] | 3.03 ± 0.1 | 2.96 ± 0.073 | 3.02 ± 0.084 | 2.99 ± 0.057
AVAVVVDPIQSVKGKVV [RPN11] | 2.22 ± 0.1 | 2.64 ± 0.14 | 2.29 ± 0.094 | 2.84 ± 0.18
KEPRLVIVTDPRSDAQA [RPS0A] | 2.56 ± 0.14 | 3.06 ± 0.087 | 2.94 ± 0.064 | 3.05 ± 0.1
KSNGLAPEIPEDLYYLI [RPS13] | 2.65 ± 0.081 | 2.83 ± 0.13 | 2.45 ± 0.11 | 2.4 ± 0.14
PINLKFLQGESPFSITF [YMR129W/POM152] | 2.53 ± 0.079 | 2.1 ± 0.063 | 2.63 ± 0.063 | 2.32 ± 0.071
GRHVATCSSDQHIKVFK [YGL100W/SEH1] | 2.71 ± 0.066 | 2.76 ± 0.059 | 2.57 ± 0.08 | 2.75 ± 0.052
LKKDIESLRGILHVRAQ [SRP72] | 1.9 ± 0.1 | 2.39 ± 0.12 | 2.11 ± 0.22 | 2.07 ± 0.062
MGLGKTLQTISFLGYLR [ISW2] | 2.45 ± 0.044 | 2.06 ± 0.054 | 1.67 ± 0.087 | 2.13 ± 0.056
YKEIRDVSRVAAVETLY [RPL20A] | 1.95 ± 0.067 | 2.19 ± 0.081 | 1.75 ± 0.17 | 1.64 ± 0.069
CSPKLPVEKVQRIAKND [DLS1] | 2.86 ± 0.29 | 3.32 ± 0.12 | 3.17 ± 0.13 | 3.4 ± 0.12
AQYEVLANYLTSALSEL [QCR2] | 1.94 ± 0.05 | 2.18 ± 0.04 | 1.99 ± 0.067 | 1.68 ± 0.044

Sequence | protein stability index (doa10∆) | protein stability index (pdr5∆) | protein stability index (san1∆) | protein stability index (ubr1∆)
SLMDTLITPAVRNTAPN [YCG1] | 1.6 ± 0.061 | 1.73 ± 0.082 | 1.26 ± 0.19 | 1.92 ± 0.058
EVTKEEDIIANYASVYP [RRP43] | 2.77 ± 0.07 | 2.95 ± 0.057 | 3.06 ± 0.094 | 3.06 ± 0.055
IDAALDKQYRTAVATLL [SMC3] | 1.87 ± 0.093 | 2.17 ± 0.079 | 2.65 ± 0.12 | 2.82 ± 0.081
SIIQSKQDCVDWFTYSY [BRR2] | 1.58 ± 0.037 | 1.78 ± 0.037 | 1.69 ± 0.085 | 1.97 ± 0.033
VDKELLEPGCSVLLHHK [RPT2] | 2.95 ± 0.16 | 2.8 ± 0.095 | 2.51 ± 0.17 | 2.66 ± 0.12
LFKYQGHIGAYLIVAGV [PUP1] | 1.66 ± 0.067 | 2.04 ± 0.06 | 1.39 ± 0.12 | 2.53 ± 0.055
ELLSMNIAPRLRLEDIF [RET1] | 2.57 ± 0.065 | 2.25 ± 0.046 | 2.35 ± 0.057 | 2.5 ± 0.047
LNHILEKSTQLQQKHEL [YGR119C/NUP57] | 2.52 ± 0.054 | 2.91 ± 0.042 | 2.66 ± 0.034 | 2.82 ± 0.035
SSLNLEDTPANDSSATR [RPB8] | 2.92 ± 0.067 | 2.85 ± 0.065 | 2.68 ± 0.063 | 3.08 ± 0.048
DYYYEDAGSNQYYVTQH [SWI1] | 3.15 ± 0.1 | 3.34 ± 0.082 | 3.09 ± 0.14 | 3.22 ± 0.095
EDYPMSSEIKIYYNELQ [SIR4] | 1.95 ± 0.13 | 3.16 ± 0.13 | 2.53 ± 0.25 | 3.02 ± 0.079
REKLAEVYKAEKDAVSV [RPS24A] | 3.27 ± 0.11 | 3.17 ± 0.069 | 3.45 ± 0.054 | 3.33 ± 0.11
VAAKWNTSLISLFTYFR [PRP8] | 1.7 ± 0.064 | 1.97 ± 0.095 | 1.74 ± 0.18 | 2 ± 0.039
NQLLAALVAYTPTDVIG [RRP6] | 1.66 ± 0.045 | 1.39 ± 0.048 | 1.25 ± 0.072 | 1.24 ± 0.032
VTVEQLRSIYHQFHDIL [NSL1] | 2.41 ± 0.11 | 1.9 ± 0.073 | 1.31 ± 0.16 | 1.81 ± 0.066
TNKLLFKRVSQTFEAKL [NUT1] | 1.78 ± 0.048 | 1.7 ± 0.046 | 1.74 ± 0.087 | 1.83 ± 0.04
RQFLKANKTNLIESLNT [YML103C/NUP188] | 2.76 ± 0.053 | 2.97 ± 0.062 | 2.87 ± 0.047 | 2.99 ± 0.039
EPVKEYTFKTSMRVKPS [YMR129W/POM152] | 3.31 ± 0.15 | 3.08 ± 0.13 | 3.04 ± 0.13 | 3.48 ± 0.16
GNDTISKFYNMKQPYVF [SSN2] | 3.12 ± 0.12 | 3.05 ± 0.11 | 3.2 ± 0.057 | 3.2 ± 0.065
VAARMFHILLKLILEWV [ECM29] | 1.42 ± 0.17 | 1.64 ± 0.12 | 1.91 ± 0.12 | 2.1 ± 0.094
LLTPKSGEPIIAATQDF [RPO31] | 2.92 ± 0.16 | 2.57 ± 0.27 |  | 
VYDIMALEDEERDEILT [BRR2] | 3.15 ± 0.16 | 3.28 ± 0.15 | 3.08 ± 0.078 | 3.39 ± 0.096
SKNAERKWAARAASAKI [RPS8A] | 3.135 ± 0.03 | 3.212 ± 0.028 | 3.173 ± 0.022 | 3.219 ± 0.026
AQKRVVSYMMPSLYRLL [SRB8] | 1.18 ± 0.11 | 1.19 ± 0.067 | 1.1 ± 0.12 | 1.29 ± 0.053
LSFINPKTGKVERSEAI [SEC65] | 3.6 ± 0.17 | 3.47 ± 0.081 | 3.33 ± 0.14 | 3.22 ± 0.073
TLVKGPKEPRLKSQMDT [SKI6] | 3.09 ± 0.25 | 3.05 ± 0.13 |  | 3.33 ± 0.091
